Key:
[1] = target: human PUM1 PUF domain wild type (hPUF WT) (UniProt Q14671 SEQ:1-349); experiment: EMSA; reference; 4 C, 100 mM NaCl, 1 mM EDTA, pH 7.5; details: label: Alexa680 at 5' and 3'
Protocol: (§1) Each purified protein was diluted to a desired concentration with Binding Buffer, mixed with a binding buffer and Ribonuclease Inhibitor, Cloned (Invitrogen), and then, mixed with the RNA probe at a final concentration of 0.5 nM. […] A binding reaction was performed at 4° C. for 30 min. Subsequently, the solution was gently mixed by pipetting. A binding reaction was performed again at 4° C. for […].
(§2) The solution obtained after the binding reaction was applied to 6% a non-denaturing polyacrylamide gel, followed by electrophoresis at 4° C. and 200 V. When the electrophoresis marker (2 μL of 6×Dye+10 μL of 1×binding buffer) moved by 0.5 cm, the voltage was changed to 100 V, and electrophoresis was continuously performed until the electrophoresis marker moved by 3 cm. Finally, RNA was detected with Odyssey.

hPUF_MT(905A) = hPUF_MT(905A) (UniProt Q14671 SEQ:1-349, F905A); experiment: EMSA; not significantly affected; details: tags: MBP; label: Alexa680 at 5' and 3'
Protocol: (§3) An RNA probe (OTS-1511) containing a target sequence fluorescence-labeled with Alexa680 at both ends thereof was synthesized.
as §1

hPUF_MT(R3→R5) = target: T1, hPUF_MT(R3→R5) (UniProt Q14671 SEQ:1-349); experiment: EMSA; comparable to WT; details: label: Alexa680 at 5' and 3'
T1 chain: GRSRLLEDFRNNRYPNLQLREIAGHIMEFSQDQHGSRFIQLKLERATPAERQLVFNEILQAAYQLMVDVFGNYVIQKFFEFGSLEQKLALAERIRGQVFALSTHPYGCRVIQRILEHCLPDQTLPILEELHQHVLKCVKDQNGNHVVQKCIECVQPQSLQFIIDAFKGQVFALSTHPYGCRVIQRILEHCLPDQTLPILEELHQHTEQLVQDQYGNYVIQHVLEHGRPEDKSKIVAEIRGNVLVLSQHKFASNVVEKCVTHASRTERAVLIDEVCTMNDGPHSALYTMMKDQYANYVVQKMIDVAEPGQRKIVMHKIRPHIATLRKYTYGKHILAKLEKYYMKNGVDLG
Protocol: as §3, §1

hPUF_MT(R3→R5, R4→R6) = target: T2, hPUF_MT(R3→R5, R4→R6); experiment: EMSA; binds U (R2 position) >> C; details: label: Alexa680 at 5' and 3'
T2 chain: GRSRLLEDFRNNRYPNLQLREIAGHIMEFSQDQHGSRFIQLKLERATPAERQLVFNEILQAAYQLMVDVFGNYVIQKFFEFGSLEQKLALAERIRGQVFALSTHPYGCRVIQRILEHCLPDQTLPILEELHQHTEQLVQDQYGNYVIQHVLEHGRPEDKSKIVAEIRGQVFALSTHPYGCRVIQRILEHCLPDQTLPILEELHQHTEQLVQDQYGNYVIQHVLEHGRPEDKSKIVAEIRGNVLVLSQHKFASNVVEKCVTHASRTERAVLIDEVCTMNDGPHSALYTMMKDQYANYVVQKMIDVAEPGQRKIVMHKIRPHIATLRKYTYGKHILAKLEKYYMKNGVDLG
Protocol: as §1, §2

Measured: binding result

CCAGAAUUGUAUAUAUUCG (ssRNA) [OTS-1511]
binds: all assays above
